The values below come from patent US20040072742A1 (Takeda / Millennium, published 2004).

Test [1] has as its target T1, full-length MD36 (SEQ ID NO:1) fused to yeast GAL4 transcription activated domain protein (yeast; human, UniProt Q9Y613 1-1164, limits assumed).
T1 construct: also called pACT-MD36; IRAP-BP protein
T1 sequence: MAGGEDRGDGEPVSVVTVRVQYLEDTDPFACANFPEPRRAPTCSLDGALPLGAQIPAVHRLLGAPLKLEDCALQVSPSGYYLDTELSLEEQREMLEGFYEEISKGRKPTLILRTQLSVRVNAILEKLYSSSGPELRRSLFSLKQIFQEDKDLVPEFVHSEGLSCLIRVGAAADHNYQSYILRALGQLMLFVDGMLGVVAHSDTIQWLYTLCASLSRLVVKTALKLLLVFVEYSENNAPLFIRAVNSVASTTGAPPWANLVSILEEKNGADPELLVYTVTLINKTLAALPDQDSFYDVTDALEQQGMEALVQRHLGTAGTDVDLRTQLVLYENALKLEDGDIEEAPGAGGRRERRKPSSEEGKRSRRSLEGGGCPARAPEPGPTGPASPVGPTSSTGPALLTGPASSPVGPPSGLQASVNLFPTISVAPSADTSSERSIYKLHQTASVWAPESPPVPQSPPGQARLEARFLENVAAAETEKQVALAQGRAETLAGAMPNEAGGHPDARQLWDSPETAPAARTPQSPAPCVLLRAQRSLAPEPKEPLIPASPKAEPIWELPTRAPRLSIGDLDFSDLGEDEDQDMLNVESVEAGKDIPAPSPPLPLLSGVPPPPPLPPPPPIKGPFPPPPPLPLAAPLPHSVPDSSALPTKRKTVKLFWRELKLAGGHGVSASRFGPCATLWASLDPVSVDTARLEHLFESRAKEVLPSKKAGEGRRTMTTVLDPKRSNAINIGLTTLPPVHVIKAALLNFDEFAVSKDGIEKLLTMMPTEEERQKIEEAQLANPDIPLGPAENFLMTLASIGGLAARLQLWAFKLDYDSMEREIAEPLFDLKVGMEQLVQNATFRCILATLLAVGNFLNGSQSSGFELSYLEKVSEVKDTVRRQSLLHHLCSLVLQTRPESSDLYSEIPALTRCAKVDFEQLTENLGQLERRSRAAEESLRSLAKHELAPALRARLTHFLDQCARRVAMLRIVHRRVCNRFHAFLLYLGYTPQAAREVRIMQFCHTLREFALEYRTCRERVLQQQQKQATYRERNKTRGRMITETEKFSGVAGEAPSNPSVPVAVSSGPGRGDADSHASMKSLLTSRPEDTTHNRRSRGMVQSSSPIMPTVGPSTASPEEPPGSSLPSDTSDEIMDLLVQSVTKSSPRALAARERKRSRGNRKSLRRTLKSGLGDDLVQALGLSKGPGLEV
Description: yeast two-hybrid, HIS3 reporter growth on histidine-free medium. From the text:
(§1) The protein-protein interaction between MD36 and the profilin family was detected by the yeast two-hybrid system. Based on pGBT9 (CLONTECH), expression plasmids were constructed to express the coding regions of profiling I (Evangelista et al., Science, 276, 118-122, 1997; Imamura et al., EMBO J., 16, 2745-2755, 1997; Tanaka, Biochem. Biophys. Res. Commun., 267, 479-481, 2000), profilin II (Schluter et al., Biohim. Biophys. Acta, 1359, 97-109, 1997), and profiling IIL in the form fused to yeast GAL4-DNA-binding domain protein under control of yeast ADH1 promoter. These plasmids were named pG-PFNI, pG-PFNII and pG-PFNIII, respectively (yeast selection marker was TRP1). On the other hand, expression plasmids that express the full-length sequence (SEQ ID NO:1) of MD36, which is IRAP-BP protein, or the coding region from this N-terminus to the sequence (SEQ ID NO:33) including the proline-rich domain in the form fused to yeast […] activated domain protein under control of yeast ADH1 promoter was constructed based on pACT2 (CLONTECH), and named pACT-MD36 and pACT-MD36NT, respectively (yeast selection marker was LEU2). pG-PFNI, pG-PFNII, pG-PFNIII or, pGBT9 for control was co-transfected to yeast Saccharomyces cerevisiae Y190 together with pACT-MD36 or pACT-MD36NT, and yeast strains bearing plasmids from the two were selected on SD medium free of tryptophan and leucine. […]

For test [2], the target named is T2, MD36NT (MD36 from the N terminus to the proline-rich domain, SEQ ID NO:33) fused to yeast GAL4 transcription … (yeast; human, UniProt Q9Y613 1-640, limits assumed).
T2 construct: also called pACT-MD36NT
T2 sequence: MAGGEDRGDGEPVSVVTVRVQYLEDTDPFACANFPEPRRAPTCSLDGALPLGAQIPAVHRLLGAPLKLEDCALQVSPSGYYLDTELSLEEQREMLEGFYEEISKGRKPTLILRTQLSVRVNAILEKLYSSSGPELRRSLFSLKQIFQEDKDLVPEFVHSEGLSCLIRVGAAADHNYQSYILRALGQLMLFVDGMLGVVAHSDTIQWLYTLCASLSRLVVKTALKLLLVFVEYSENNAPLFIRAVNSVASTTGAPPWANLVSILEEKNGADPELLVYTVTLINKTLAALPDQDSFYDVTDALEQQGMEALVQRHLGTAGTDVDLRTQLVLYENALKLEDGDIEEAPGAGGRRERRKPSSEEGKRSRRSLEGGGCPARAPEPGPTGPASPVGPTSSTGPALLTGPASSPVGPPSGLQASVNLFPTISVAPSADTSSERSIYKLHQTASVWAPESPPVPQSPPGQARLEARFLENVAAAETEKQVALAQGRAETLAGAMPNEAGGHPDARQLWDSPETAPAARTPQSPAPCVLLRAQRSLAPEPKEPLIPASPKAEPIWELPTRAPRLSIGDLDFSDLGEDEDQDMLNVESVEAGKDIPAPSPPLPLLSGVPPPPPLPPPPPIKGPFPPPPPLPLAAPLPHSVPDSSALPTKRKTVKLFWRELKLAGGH
Described as above.
Source text: as §1

The target of test [3] is T1, full-length MD36 (SEQ ID NO:1) fused to …. Put plainly: yeast two-hybrid, HIS3 reporter growth.
Source text: as §1

For test [4], the target named is T2, MD36NT (MD36 from the N terminus to the …). Put plainly: yeast two-hybrid, HIS3 reporter growth.
Source text: as §1

B1: profilin II fused to yeast GAL4-DNA-binding domain protein (other)
chain: MKLLSSIEQACDICRLKKLKCSKEKPKCAKCLKNNWECRYSPKTKRSPLTRAHLTEVESRLERLEQLFLLIFPREDLDMILKMDSLQDIKALLTGLFVQDNVNKDAVTDRLASVETDMPLTLRQHRISATSSSEESSNKGQRQLTVSAGWQSYVDNLMCDGCCQEAAIVGYCDAKYVWAATAGGVFQSITPIEIDMIVGKDREGFFTNGLTLGAKKCSVIRDSLYVDGDCTMDIRTKSQGGEPTYNVAVGRAGRALVIVMGKEGVHGGTLNKKAYELALYLRRSDV
notes: also called PFN II; pG-PFNII
Take B1: the binding result in test [1] and in test [2] was “no binding” throughout.

B2: profilin IIL fused to yeast GAL4-DNA-binding domain protein (other)
chain: MKLLSSIEQACDICRLKKLKCSKEKPKCAKCLKNNWECRYSPKTKRSPLTRAHLTEVESRLERLEQLFLLIFPREDLDMILKMDSLQDIKALLTGLFVQDNVNKDAVTDRLASVETDMPLTLRQHRISATSSSEESSNKGQRQLTVSMAGWQSYVDNLMCDGCCQEAAIVGYCDAKYVWAATAGGVFQSITPIEIDMIVGKDREGFFTNGLTLGAKKCSVIRDSLYVDGDCTMDIRTKSQGGEPTYNVAVGRAGRVLVFVMGKEGVHGGGLNKKAYSMAKYLRDSGF
notes: Profilin IIL was cloned from human skeletal muscle-derived cDNA; also called PFN IIL
With B2, the binding result in test [3] and in test [4] was “binds” throughout.
